# Earlier results as cited in paper PMC4651712.
# Molecular target: PTHR1 (Homo sapiens) (UniProt Q03431)
# UniProt Q03431, sequence (Q03431 27-593): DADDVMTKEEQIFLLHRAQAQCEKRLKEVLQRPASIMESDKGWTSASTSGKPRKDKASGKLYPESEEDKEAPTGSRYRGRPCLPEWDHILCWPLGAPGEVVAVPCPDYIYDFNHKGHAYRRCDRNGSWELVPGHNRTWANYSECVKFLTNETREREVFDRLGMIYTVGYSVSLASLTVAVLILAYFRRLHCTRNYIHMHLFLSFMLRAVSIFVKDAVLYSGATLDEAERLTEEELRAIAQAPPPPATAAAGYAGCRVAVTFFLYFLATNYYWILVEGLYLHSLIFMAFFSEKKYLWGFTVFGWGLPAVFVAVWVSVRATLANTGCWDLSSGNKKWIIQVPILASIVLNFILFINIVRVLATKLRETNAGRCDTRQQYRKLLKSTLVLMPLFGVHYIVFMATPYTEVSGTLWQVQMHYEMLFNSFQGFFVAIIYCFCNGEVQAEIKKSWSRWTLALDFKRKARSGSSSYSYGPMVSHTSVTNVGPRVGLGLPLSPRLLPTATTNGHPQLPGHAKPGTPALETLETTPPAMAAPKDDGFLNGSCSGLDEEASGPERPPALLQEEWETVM
substance,measurement,value
PTH (from UniProt P01270),Kd,1 nM
